Laboratory results published in the supplement of paper PMC12764529.
± gives the half width of the 95% confidence interval.

Assay: folding stability dG unfold from chymotrypsin proteolysis; higher = more stable
Procedure, shortened: (§1)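 Sequencing followed digestion of designed mini-proteins with trypsin and chymotrypsin, each at 11 concentrations in threefold dilutions together with a no-protease condition. The mini-proteins were under 80 residues, had no cysteine, sat in a PA-tagged cDNA display construct, and were kept only if AlphaFold2 dimer inter-PAE was above 15. From the counts, Bayesian fitting gave K50, and unfolding free energy was derived against a sequence-predicted unfolded-state K50 and a shared folded-state K50, per protease or combined.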

Point of comparison: “SAGGMKIKIEITEIKKEGDTVYIKVKITITLPNGKVIKIEMTLRYNKETGKWEIVKIEKIEIFPLPESAGGS [r16_729_TrROS_Hall]”, “folding stability dG unfold” value 5.3 ± 0.31 kcal/mol. Against it:
- SAGGSAGGSEGFVLRVRRYRRRPDDRVRVPVSEAELEVLPELADAVARALREASPEVEVELRPSAGGSAGGS [r12_342_TrMRF] — lower, 0.0982 ± 0.27 kcal/mol

Assay: folding stability dG unfold (combined trypsin and chymotrypsin); higher = more stable
Procedure, shortened: as §1

Point of comparison: “SAMKTYTFEFTLTVPPDTPLEEVKAKVKEKVKAELKKLGIPLPETAKIEIKKVKEEGNKIYFKVTVTNKSAG [r14_735_JUSTAS]”, “folding stability dG unfold” value 4.16 ± 0.14 kcal/mol. Against it:
- SMKKTLTEKIEGVLPEEEAERYLEEYIASRPWAEKVEVKPEIKPIFDEKGNKLVKVKTTITVTISEEKLKSA [r9_1006_JUSTAS] — lower, < -1 kcal/mol
- SSVITNKGSLTITKTTLPDGTVVITITDPNGGRTTTITIPADSDGEATVTPTGSGNAATSTIPVSSLKLSSA [r9_1071_JUSTAS] — lower, 0.183 ± 0.21 kcal/mol
- SAGGSENPNDPRPVVPVGVAVVDIEIHGHPDMTEEERLAAVEEAVEALEGLEVEHPDGHPTILLAGSAGGSA [r2_149_TrMRF] — lower, < -1 kcal/mol
- SAGGSAGGSAGGSMKTTTLTVKPEELEEVKKKLTPPDKTVTIKSVTKDPKEDLVTLTVESAGGSAGGSAGGS [r10_1030_JUSTAS] — lower, -0.923 ± 0.65 kcal/mol
- SAGGGSKVIKVEYEKKDGGKVFIDDITDPGDSVEASIFNPKTGVKIPLPFDKLEELEDFIKEFVDKYSAGGS [r16_736_TrMRF] — lower, < -1 kcal/mol
- SAMKKLRELLEKEFPDRPIKSVKNLGEKLAPDGTPYYVVELTFPDGSTITVTITSEEKPEILEAIEEEESAG [r14_143_JUSTAS] — within error, 4.03 ± 0.27 kcal/mol
- SAGGSAGGSAGGMRTFPSESLETLPENGLRKKTLTVTYVPPDNPERSYVETEVEIIPSEVSAGGSAGGSAGG [r17_241_JUSTAS] — lower, < -1 kcal/mol
- SAGGSAMSRTITVEITDPRNGKKLKNVVIDVPEDEDISDEEILKKIGIPEKEAKNIKVSKTTEELESAGGSA [r15_665_JUSTAS] — lower, 0.169 ± 0.19 kcal/mol
- SAGGSAGGMIRTYELPETGEVRVLIRTPNPEEAEALAAEVRAELAAAGLDVPVEISPGPASALDSAGGSAGG [r6_641_JUSTAS] — lower, 0.283 ± 0.18 kcal/mol
- SAGGEPGVSAEEAAERLRRELGLPGLERVLEVRLTRAVGDPAGRPPEAESLEVEVEVSPEVRERLAALSAGG [r13_552_JUSTAS] — lower, 0.00798 ± 0.068 kcal/mol
- SAGGSAGGSAGGMPAEEVQNIIEEQGFDGPNQTVTIDVPDGRRVKIEMPPNGMKLEVEDSAGGSAGGSAGGS [r10_604_TrROS] — lower, -0.538 ± 0.31 kcal/mol
- SAGGSAGGSAGGMPPRLVEIPIFVPPTDPARAEALAEELREELGAEEVVVRIVLAPPGLGSAGGSAGGSAGG [r7_632_JUSTAS] — lower, 0.414 ± 0.072 kcal/mol
- SAGGNIPPGETWKIKFPGKPIEIQMQQINGKPMYRLRDKNNKPHGTMTPDEADEFLDKLPPNWEIERYSAGG [r13_657_TrROS] — lower, -0.353 ± 0.22 kcal/mol
- SAGGSAGGSVIPFPGNSRIYVTEVREDGVKIKFPDIGTEITVPANVPINLVGNPTIGPDGTPYSAGGSAGGS [r20_105_TrMRF] — lower, < -1 kcal/mol
- SAGGSAGGMTIPAEKIKGKPIKVLVDRGNAIFPLKEAKVKTKPDGRVELYVPKELGEDTKIIAGSAGGSAGG [r6_628_TrMRF] — lower, < -1 kcal/mol
- SAGGSAGGSMTETVEKTMPSNGATAEITKLPDGSIKVTIKGSNPVIETFPADEPLVIKPGLEGSAGGSAGGS [r12_1003_JUSTAS] — lower, 0.263 ± 0.18 kcal/mol
- SMEFTIEVYDPVTPKVETFPVKAPKEKVIEKIREFQEKGGKVVLSGLPEEKVKEIVEEAGVDVEIVPVEKSA [r9_1207_TrMRF] — lower, 0.283 ± 0.19 kcal/mol
- SAGGSAGGSAGPVIRIPDATVTTDPATGTLTVTTAGRTVTVPPGATVTVLPDGTVVVERPSAGGSAGGSAGG [r17_34_JUSTAS] — lower, -0.0514 ± 0.067 kcal/mol
- SVIIKGPGPETYYVEKFGNETKITKFSTEGDKFYKKEYYETFDPNNKTVSRKENEVEEIEPEEEKPFSELSA [r9_83_JUSTAS] — lower, 0.0208 ± 0.11 kcal/mol
- SAGGSAGGSAGGSDPSMSLETFVIPESTSTVTLTDPSGTLRTLTTGRDPLTLTEVLPPRSAGGSAGGSAGGS [r4_162_JUSTAS] — lower, -0.078 ± 0.17 kcal/mol
- SAGGSAGGSAGGPVLIRAVFTPPNGPVLELVVPSPEEVVELAKPFDVEVHIEPISPDDPFSAGGSAGGSAGG [r7_456_TrMRF] — lower, < -1 kcal/mol
- SAGGSAGGSAGGMKIRVTHPTNKTEEIIPVSELKKIPGPYTIEPLGPDPELAEKIKKLLSAGGSAGGSAGGS [r10_419_JUSTAS] — lower, 0.142 ± 0.25 kcal/mol
- SAGGSAGGSAGGPELPEDVPVVEVVHLDLPFSPDEPEVVEEAEAKAAALEEGGALAEIRRSAGGSAGGSAGG [r11_519_JUSTAS] — lower, 0.0364 ± 0.097 kcal/mol
- SAGTITKLKTEYDPKGYRFIELLDPLPNDPSVPAEALAQEIKEKYGAEKAEIKPVPGTGAIRILLIKPESAG [r14_228_JUSTAS] — lower, -0.67 ± 0.42 kcal/mol
- SAGGSAGMKNVVKPVAPGTSMTLKVTKPDGTPRTLTFPPNYTATVKTLPEGGKDEIISLEPVPPELSAGGSA [r15_82_JUSTAS] — lower, < -1 kcal/mol
- SAGGSAGGSAGMTITVYPSDGTVLTRDMSLSEIPELLKKHPELVLESIEEGEGLAKFKVKSAGGSAGGSAGG [r17_22_JUSTAS] — lower, < -1 kcal/mol
- SAGGSAGGSAGGSMVYRVVLEPESGERVEFEVTYDEAEELLEKLPPNARLRIEPVPEDASAGGSAGGSAGGS [r4_63_TrMRF] — lower, -0.0741 ± 0.17 kcal/mol
- SAGGSAGGITLVVEGMPAEQMEEMKQKIREFAEDYNVEVNIDQERNPDGRMRATVEIEPPPGDPSAGGSAGG [r6_907_TrROS] — lower, -0.767 ± 0.28 kcal/mol
- SAGGGMGSSMKAKVEEEIPELKAADSTKVEITVTVTETRSFALPGGELATTTTTTTKTLEVEVPEEESAGGS [r8_203_JUSTAS] — lower, -0.217 ± 0.34 kcal/mol
- SAGGSAGGSAGGGMRLVEVPPGDPAAVEARLAELGPDARLLEVRRLPEEGRWVVLVSEESAGGSAGGSAGGS [r10_23_JUSTAS] — lower, -0.258 ± 0.33 kcal/mol
- SAGGSAGGSAGGSGPPHMRTTNEVTITLDGTVVSGSTPLPESLPPGVETYTTETYLPPLSAGGSAGGSAGGS [r4_436_JUSTAS] — lower, < -1 kcal/mol
- SAGGSAGGSEGFVLRVRRYRRRPDDRVRVPVSEAELEVLPELADAVARALREASPEVEVELRPSAGGSAGGS [r12_342_TrMRF] — lower, < -1 kcal/mol
- SAGGMKIKIEITEIKKEGDTVYIKVKITITLPNGKVIKIEMTLRYNKETGKWEIVKIEKIEIFPLPESAGGS [r16_729_TrROS_Hall] — higher, 5.46 ± 0.49 kcal/mol
